Assay results from paper PMC4571865, “Structural Basis for Antigen Recognition by Transglutaminase 2-specific Autoantibodies in Celiac Disease*” (The Journal of Biological Chemistry, 2015).

Legend:
Conditions in all cases: both partners purified
[1] = molecular target: T1, transglutaminase 2 mutant R19S (Homo sapiens (assumed; human TG2 …, UniProt P21980, R19S); assay: SPR; BIAcore 3000; anti-TG2 antibodies amine-coupled to CM5 chips (700-2300 RU); WT or mutant TG2 injected in HBS-EP (0.01 M HEPES, 0.15 M NaCl, 2 mM EDTA, 0.05% P20, pH 7.4), 40 ul/min, 25 °C; relative binding at 500 nM, kinetics from serial dilutions (15.6/156-500/5000 nM); 1:1 Langmuir model; reference cell with a non-TG2 reactive antibody
T1 construct: transglutaminase 2 (TG2); also called TG2 R19S

[2] = molecular target: T2, transglutaminase 2 mutant R116A (Homo sapiens (assumed; human TG2 …, UniProt P21980, R116A); assay: as above
T2 construct: transglutaminase 2 (TG2); also called TG2 R116A

[3] = molecular target: T3, transglutaminase 2, wild type (UniProt P21980); assay: as above
T3 construct: transglutaminase 2 (TG2); For the complex, native PAGE and SAXS the protein was incubated with 1 mM GDP (closed conformation); SASBDB SASDA28, SASDA38 and SASDA48 hold the SAXS data of TG2-GDP, the Fab and the complex; also called TG2; WT TG2

[4] = molecular target: T4, transglutaminase 2 mutant K30A (Homo sapiens (assumed; human TG2 …, UniProt P21980, K30A); assay: as above
T4 construct: transglutaminase 2 (TG2); also called TG2 K30A

[5] = molecular target: T3, transglutaminase 2, wild type; assay: SAXS; complex of TG2-GDP and 679-14-E06 Fab in solution, data at 9 mg/ml; molecular weight estimates and ab initio models; beamline P12, PETRA III

T1 sequence (P21980 whole entry R19S): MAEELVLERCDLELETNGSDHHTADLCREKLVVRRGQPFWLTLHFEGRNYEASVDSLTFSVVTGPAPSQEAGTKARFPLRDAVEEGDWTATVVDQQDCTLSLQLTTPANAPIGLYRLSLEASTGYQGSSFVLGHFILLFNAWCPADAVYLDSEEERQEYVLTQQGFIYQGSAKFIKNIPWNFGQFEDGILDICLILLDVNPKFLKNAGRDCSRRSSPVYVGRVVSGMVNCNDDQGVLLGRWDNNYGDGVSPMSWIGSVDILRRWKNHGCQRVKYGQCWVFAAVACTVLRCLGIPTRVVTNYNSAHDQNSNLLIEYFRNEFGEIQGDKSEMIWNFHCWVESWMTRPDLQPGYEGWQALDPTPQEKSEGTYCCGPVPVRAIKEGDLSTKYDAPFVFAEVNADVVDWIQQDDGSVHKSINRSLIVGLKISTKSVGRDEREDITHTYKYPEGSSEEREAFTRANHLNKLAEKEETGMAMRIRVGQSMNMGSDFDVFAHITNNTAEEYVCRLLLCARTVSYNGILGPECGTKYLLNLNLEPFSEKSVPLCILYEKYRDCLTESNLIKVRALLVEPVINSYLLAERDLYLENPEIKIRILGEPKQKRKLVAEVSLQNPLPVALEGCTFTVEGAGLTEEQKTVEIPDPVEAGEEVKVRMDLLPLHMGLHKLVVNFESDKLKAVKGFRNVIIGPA
T2 sequence (P21980 whole entry R116A): as the sequence (P21980 whole entry R19S) above, with S19R, R116A counted along it
T3 sequence (P21980 whole entry): as the sequence (P21980 whole entry R19S) above, with S19R counted along it
T4 sequence (P21980 whole entry K30A): as the sequence (P21980 whole entry R19S) above, with S19R, K30A counted along it

Binder | Kd [1] [nM] | koff [1] [s⁻¹] | kon [1] [M⁻¹ s⁻¹] | Kd [2] [nM] | koff [2] [s⁻¹] | kon [2] [M⁻¹ s⁻¹] | Kd [3] [nM] | koff [3] [s⁻¹] | kon [3] [M⁻¹ s⁻¹] | Kd [4] [nM] | koff [4] [s⁻¹] | kon [4] [M⁻¹ s⁻¹] | stoichiometry N [5]
anti-TG2 antibody 679-14-E06 (human IgG1) (antibody, V domains shown, constant region of human IgG1; IgG1; derived from a single gut IgA plasma cell of a celiac disease patient; Residues 142-149, 198-207, 225-231 of the heavy chain and 172-175, 228-234 of the light chain lack electron density in PDB 4ZD3 (IMGT numbering); source: HEK 293F cells, co-transfected heavy and light chain plasmids; purified from culture supernatant (protein G column)) VH: EVQLVQSGAEVKKPGESLKISCKGSGYSFTSYWIGWVRQMPGKGLEWMGIIYPGDSDTRYSPSFQGQVTISADKSISTAYLQWSSLKASDTAMYYCARPHYYDSLDAFDIWGQGTMVTVSS VL: not shown | 147 | 0.00525 | 35800 | 240 | 0.00736 | 30600 | 55.5 | 0.00474 | 85300 | 49.9 | 0.00353 | 70800 | 
Fab fragment of antibody 679-14-E06 (Fab, V domains shown, Electron density is missing for residues 142-149, 198-207, 225-231 of the heavy chain and 172-175, 228-234 of the light chain in PDB 4ZD3 (IMGT numbering); also called the Fab fragment; source: HEK 293F cells, co-transfected heavy and light chain plasmids; purified from culture supernatant (protein L column)) VH: EVQLVQSGAEVKKPGESLKISCKGSGYSFTSYWIGWVRQMPGKGLEWMGIIYPGDSDTRYSPSFQGQVTISADKSISTAYLQWSSLKASDTAMYYCARPHYYDSLDAFDIWGQGTMVTVSS VL: not shown |  |  |  |  |  |  |  |  |  |  |  |  | 1
